Laboratory results from patent publication US20210395360A1 (published 2021).
Read-outs that look alike come from different tables or passages of the source. One block for each binder: values may come before it.

Legend:
[1] = biological target: T1, mouse Sp35 in cell lysate (immunoprecipitation, Western) (mouse, UniProt Q9D1T0 36-614, limits assumed); assay: IP
T1 construct: also called mSp35; mLINGO-1
T1 sequence (looked up): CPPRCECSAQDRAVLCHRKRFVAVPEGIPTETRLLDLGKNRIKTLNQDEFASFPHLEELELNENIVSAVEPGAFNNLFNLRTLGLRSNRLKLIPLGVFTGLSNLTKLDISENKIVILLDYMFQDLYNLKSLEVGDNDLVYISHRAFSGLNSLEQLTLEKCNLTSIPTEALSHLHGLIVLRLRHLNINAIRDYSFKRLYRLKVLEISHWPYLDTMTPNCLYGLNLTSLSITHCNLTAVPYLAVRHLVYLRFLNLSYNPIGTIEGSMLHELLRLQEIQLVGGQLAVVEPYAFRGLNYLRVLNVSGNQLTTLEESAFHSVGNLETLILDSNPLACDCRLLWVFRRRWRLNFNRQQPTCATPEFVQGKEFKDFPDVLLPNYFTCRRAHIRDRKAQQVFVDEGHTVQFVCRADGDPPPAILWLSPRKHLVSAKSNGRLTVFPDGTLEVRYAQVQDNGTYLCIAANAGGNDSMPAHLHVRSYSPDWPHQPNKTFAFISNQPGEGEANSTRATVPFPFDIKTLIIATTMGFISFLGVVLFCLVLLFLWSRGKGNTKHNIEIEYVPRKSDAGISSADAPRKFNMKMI
Description: (§1) To perform the immunoprecipitation, COS-1 cells expressing Sp35, fused to a hemaglutinin (HA) tag on the N-terminus, were produced by transiently transfecting COS-1 cells with a DNA construct which expresses the full-length Sp35 protein with an HA tag. Cells were harvested 48 hr after transfection and were lysed in 1 ml lysis buffer (50 mM HEPES, pH 7.5, 150 mM NaCl, 1.5 mM MgCl₂, 1 mM EGTA, 1% Triton X-100 and 10% glycerol) for 30 min at 4° C. After centrifugation at 14,000×g for 15 min, the supernatants were incubated with ProteinA/G-Sepharose beads (Santa Cruz) at 4° C. for 1 hr, and then incubated at 4° C. for 1 hr with either the 1A7 or the 2F3 anti-Sp35 murine monoclonal antibodies. The beads were washed 3 times with lysis buffer, boiled in Laemmli sample buffer, subjected to 4-20% SD S-PAGE, and analyzed by Western blotting using an antibody which recognizes the HA tag. As shown on the SDS-PAGE gel, monoclonal antibodies 1A7 and 2F3, immunoprecipitated human and murine Sp35 (FIG. 1). […] Similarly, monoclonal antibodies 1G7, 2B10, 2F3, 3P4C2.2D2, 3P4C8.2G9, Li01, Li03, Li05, Li06, Li07, Li08, Li11, Li12, 7P1D5.1G9 and 3B5.2 immunoprecipitate human or mouse or human and mouse Sp35 (See Table 3B and 3C). Additionally, Li08 immunoprecipitates AP-Sp35 and monoclonal antibodies 1B6.4 and 3E3.1 immunoprecipitate endogenous Sp35 (See Table 3B).

[2] = biological target: T2, human Sp35, full-length, in cell lysate (immunoprecipitation, Western) (human, UniProt Q96FE5 40-620); assay: IP
T2 construct: also called huSp35; hLINGO-1
T2 sequence: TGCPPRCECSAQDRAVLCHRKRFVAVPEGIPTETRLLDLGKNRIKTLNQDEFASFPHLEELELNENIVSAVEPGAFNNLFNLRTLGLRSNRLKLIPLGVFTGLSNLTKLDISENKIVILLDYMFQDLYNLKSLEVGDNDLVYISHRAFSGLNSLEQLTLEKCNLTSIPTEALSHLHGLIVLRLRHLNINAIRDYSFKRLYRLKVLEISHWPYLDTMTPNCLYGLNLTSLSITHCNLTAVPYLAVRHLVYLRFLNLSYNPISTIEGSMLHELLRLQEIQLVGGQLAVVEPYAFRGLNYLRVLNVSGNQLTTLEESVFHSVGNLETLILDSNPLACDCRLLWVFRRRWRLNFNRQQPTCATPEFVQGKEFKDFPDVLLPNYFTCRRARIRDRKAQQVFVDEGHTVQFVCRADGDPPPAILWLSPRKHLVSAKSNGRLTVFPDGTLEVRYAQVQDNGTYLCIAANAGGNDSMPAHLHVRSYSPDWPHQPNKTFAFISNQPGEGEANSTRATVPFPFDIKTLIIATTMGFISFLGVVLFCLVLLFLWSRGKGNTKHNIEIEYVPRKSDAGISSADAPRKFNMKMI
Description: as §1

[3] = biological target: T3, human Sp35 protein expressed on transfected cells (human, UniProt Q96FE5 40-620); assay: IHC, transfected cells
T3 construct: also called huSp35; hLINGO-1
T3 sequence: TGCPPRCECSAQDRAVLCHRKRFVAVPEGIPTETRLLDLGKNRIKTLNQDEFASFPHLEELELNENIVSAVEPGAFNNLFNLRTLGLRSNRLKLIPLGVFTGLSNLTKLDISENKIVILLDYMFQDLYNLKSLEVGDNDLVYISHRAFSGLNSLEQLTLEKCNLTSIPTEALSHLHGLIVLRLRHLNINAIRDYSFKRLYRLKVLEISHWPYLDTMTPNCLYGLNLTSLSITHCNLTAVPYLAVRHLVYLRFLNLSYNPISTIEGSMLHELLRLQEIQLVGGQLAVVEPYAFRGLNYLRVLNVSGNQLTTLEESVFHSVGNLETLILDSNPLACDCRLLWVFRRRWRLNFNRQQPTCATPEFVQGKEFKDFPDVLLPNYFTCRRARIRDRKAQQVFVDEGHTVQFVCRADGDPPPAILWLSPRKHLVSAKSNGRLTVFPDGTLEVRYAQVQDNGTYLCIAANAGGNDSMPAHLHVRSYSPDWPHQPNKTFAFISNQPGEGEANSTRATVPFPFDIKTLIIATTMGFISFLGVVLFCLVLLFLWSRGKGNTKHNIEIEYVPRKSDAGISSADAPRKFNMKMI

[4] = biological target: T4, Sp35-Fc fusion protein (human Sp35 residues 1-532 fused to hinge and Fc of human IgG1) (human, UniProt Q96FE5 40-538); assay: ELISA
T4 construct: ran as a dimer under non-reducing conditions; also called LINGO-1-Ig; not shown: hinge and Fc region of human IgG1
T4 sequence: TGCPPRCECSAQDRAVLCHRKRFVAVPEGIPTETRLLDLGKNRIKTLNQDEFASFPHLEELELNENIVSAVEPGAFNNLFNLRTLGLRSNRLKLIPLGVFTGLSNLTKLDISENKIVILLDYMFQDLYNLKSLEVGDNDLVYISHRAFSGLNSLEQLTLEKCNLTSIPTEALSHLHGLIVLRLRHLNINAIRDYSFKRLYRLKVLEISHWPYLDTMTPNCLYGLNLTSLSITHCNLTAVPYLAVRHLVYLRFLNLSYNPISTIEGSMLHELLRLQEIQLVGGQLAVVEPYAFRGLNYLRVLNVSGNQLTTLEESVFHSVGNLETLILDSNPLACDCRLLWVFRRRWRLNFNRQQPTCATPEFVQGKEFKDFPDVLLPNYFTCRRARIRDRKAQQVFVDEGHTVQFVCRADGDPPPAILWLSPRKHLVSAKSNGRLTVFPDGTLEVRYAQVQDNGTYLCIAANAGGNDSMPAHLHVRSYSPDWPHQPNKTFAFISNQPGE
Description: In order to determine which regions of the Sp35 polypeptide were bound by the various hybridoma- and phage display-derived monoclonal antibodies produced in Example 2, an ELISA assay was performed using a panel of truncated Sp35 polypeptides, each fused to the hinge and Fc regions of IgG1 by the methods described in Example 1. […] Ovalbumin and BSA were used as controls. […] The affinity of these latter antibodies for mouse and rat Sp35 was restored to the level seen using human Sp35 when amino acid 419 of the mouse or rat Sp35 is changed from histidine (H) to arginine (R). Arginine is the amino acid at position 419 in human Sp35. […] AP substrate was then developed by 10 mg/ml 4NPP in 0.1 M Glycine, 1 mM MgCl₂, 1 mM ZnCl₂, pH 10.5, and read at O.D. 405.

[5] = biological target: T3, human Sp35 protein expressed on …; assay: FACS, stable CHO
[6] = biological target: T5, mouse Sp35 protein expressed on transfected cells (mouse, UniProt Q9D1T0 36-614); assay: FACS, stable CHO
T5 construct: whole, on cells; also called mSp35; mLINGO-1
T5 sequence (looked up): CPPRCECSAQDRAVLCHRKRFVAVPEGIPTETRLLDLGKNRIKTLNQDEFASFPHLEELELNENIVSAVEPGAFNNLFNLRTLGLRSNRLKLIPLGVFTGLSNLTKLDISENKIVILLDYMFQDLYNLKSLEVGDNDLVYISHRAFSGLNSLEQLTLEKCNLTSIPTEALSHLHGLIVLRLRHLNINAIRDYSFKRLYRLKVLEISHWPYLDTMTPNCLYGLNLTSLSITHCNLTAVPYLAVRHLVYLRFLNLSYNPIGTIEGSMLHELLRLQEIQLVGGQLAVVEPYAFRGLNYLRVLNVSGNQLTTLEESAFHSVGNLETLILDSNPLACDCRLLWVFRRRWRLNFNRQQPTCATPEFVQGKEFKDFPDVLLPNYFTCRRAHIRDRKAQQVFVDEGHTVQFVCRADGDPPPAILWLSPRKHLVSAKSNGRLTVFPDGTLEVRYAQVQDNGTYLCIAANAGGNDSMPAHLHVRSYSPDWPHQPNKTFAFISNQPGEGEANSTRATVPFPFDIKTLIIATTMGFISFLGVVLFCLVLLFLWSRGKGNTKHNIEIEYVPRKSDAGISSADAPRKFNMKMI

Ig region of Sp35 = biological target: T6, Ig region of Sp35 (Homo sapiens (Human), UniProt Q96FE5 423-538, limits assumed); assay: ELISA
T6 sequence: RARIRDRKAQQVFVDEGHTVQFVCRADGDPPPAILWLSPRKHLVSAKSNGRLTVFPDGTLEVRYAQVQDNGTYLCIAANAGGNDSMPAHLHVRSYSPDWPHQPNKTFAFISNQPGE

[7] = biological target: T1, mouse Sp35 in cell lysate …; assay: IP; remark: listed apart in the source
[8] = biological target: mouse Sp35 protein expressed on transfected cells (mouse) (UniProt Q9D1T0); assay: FACS, stable CHO

B1: 30-C12 (Li01) Fab (Fab, V domains shown)
VH: EVQLLESGGGLVQPGGSLRLSCAASGFTFSKYQMTWVRQAPGKGLEWVSSIYPSGGNTVYADSVKGRFTISRDNSKNTLYLQMNSLRAEDTAVYYCASGTTEAVFDYWGQGTLVTVSS
VL: DIQMTQSPSSLSASVGDRVTITCQASQDISNYLNWYQQKPGKAPKLLIYDASNLETGVPSRFSGSGSGTDFTLTISSLQPEDFATYYCQQADRFPAVTFGGGTKVEIK
notes: human, kappa; also called Dli01
binding result [1]: binds | binding result [2]: binds

B3: 1A7 Fab (Fab, V domains shown)
VH: QVQLVQSGPELKKPGETVKISCKASGYTFTNYGMNWVKQAPGKGLKWMGWINTDTGEPTYTEDFQGRFAFSLETSASTVYLQFNNLKNEDTATYFCAREGVHFDYWGQGTTVTVSS
VL: QIVLTQSPAIMSASPGEKVTMTCSASSSVSYMHWYQQKSGTSPKRWIYDTSKLASGVPARFSGSGSGTSYSLTISSMEAEDAATYYCQQWSSNPFTFGSGTKLEIK
notes: Fab of murine IgG1/kappa 1A7
FACS on stable CHO [5]: ~1 nM

B4: 3B5.2 monoclonal antibody (ATCC PTA-8106) (antibody, mouse IgG1, V domains shown)
VH: QVQLQQPGAELVRPGTSVKLSCRASGYTFTSYWMHWVKQRPGQGLEWIGVIDPSDSYTNYNQKFRGKATLTVDTSSSTAYMQLSSLTSEDSAVYYCARPYYGSHWFFDVWGTGTTVTVSS
VL: QIVLTQSPAIMSASPGEKVTMTCSASSRVSYVHWYQQKSGTSPKRWLYDTSNLASGVPARFGGNGSGTSYSLTISSMEAEDAATYYCQQWSTNPPTFGGGTKLEIK
notes: murine IgG1/kappa; VL is named for 3B5.2; also called 3B5.5
FACS on stable CHO [5]: < 0.4 nM | FACS on stable CHO [6]: 0.4 nM | binding result (Ig region of Sp35): no binding

B8: D05 (full-length antibody with Li05 variable region) (antibody, V domains shown)
VH: EVQLLESGGGLVQPGGSLRLSCAASGFTFSAYAMGWVRQAPGKGLEWVSSIVSSGGYTDYADSVKGRFTISRDNSKNTLYLQMNSLRAEDTAVYYCAREGDHNAFDIWGQGTMVTVSS
VL: QSVLTQPPSVSVAPGQTARISCGGDNIGSKSVHWYQQRPGQAPVLVVYDDYDRPSGIPERFSGSNSGDTAILTITRVEVGDEADFYCQVRDSRTEERVFGGGTKVTVL
FACS on stable CHO [8]: 5.5 nM

Other lines, results leading:

binding result [3]: binds | binding result [2]: binds | binding result [4]: binds
B2: 2F3 monoclonal antibody (antibody, mouse IgG2a, V domains shown)
VH: EVKLEESGGGLVQPGGSMKLSCAASGFTFSDAWLDWVRQSPEKGLEWVAEIRSKANNHATNYAESVKGRFTISRDDSKSSVYLQMNSLRAEDTGIYFCTPSFAYWGQGTTVTVSS
VL: DIQMTQSPASLSASVGETVTITCRASGNIYNYLAWFQQKQGKSPQLLVYNAKTLPDGVPSRFSGSGSGTQYFLKINSLQPEDFGSYYCQHFWAIPYTFGGGTKLEIK
notes: murine IgG2a

binding result [7]: binds
B5: 80-A08 (Dli33) Fab (Fab, V domains shown)
VH: EVQLLESGGGLVQPGGSLRLSCAASGFTFSIYPMFWVRQAPGKGLEWVSWIGPSGGITKYADSVKGRFTISRDNSKNTLYLQMNSLRAEDTATYYCAREGHNDWYFDLWGRGTLVTVSS
VL: DIQMTQSPGTLSLSPGERATLSCRASQSVSSYLAWYQQKPGQAPRLLIYDASNRATGIPARFSGSGSGTEFTLTISSLQSEDFAVYYCQQYDKWPLTFGGGTKVEIK
notes: human

binding result [7]: binds
B6: 80-D02 (Dli34) Fab (Fab, V domains shown)
VH: EVQLLESGGGLVQPGGSLRLSCAASGFTFSNYEMYWVRQAPGKGLEWVSGIYSSGGITVYADSVKGRFTISRDNSKNTLYLQMNSLRAEDTAVYYCARAAILDWYFDLWGRGTLVTVSS
VL: DIQMTQSPSSLSASVGDRVTITCHASQDISNYLSWYQQKPGKAPKLLIYDAFNLETGVPSRFSGSGSGTDFTFTISSLQPEDFATYYCQHYDNLPFTFGPGTRVAIR
notes: human

binding result [1]: binds
B7: 30-B01 (Li11) Fab (Fab, V domains shown)
VH: EVQLLESGGGLVQPGGSLRLSCAASGFTFSSYAMYWVRQAPGKGLEWVSSISTSGGYTGYADSVKGRFTISRDNSKNTLYLQMNSLRAEDTAVYYCARDTSDNDYYYMDVWGKGTTVTVSS
VL: DIQMTQSPSSVSAPIGDRVTITCRASQEIANYLAWYQQKPGKAPKLLIYDTYTLQTDVPPRFSGSGSGTDFTLTISSLQPEDTATYFCQQADIFPLSFGGGTKVEIK
notes: human, kappa; also called Li011; Dli11
